Here are results for two molecules from patent US6090929.

In assay [1] the target is PKC βII.
Assay [2] has as its target recombinant fragment of RIIα (RII 1-45). Description: SPR (IAsys), gravin 1526-1780 coupled to the cuvette, RIIα 1-45 at 25 to 150 nM.

As usually defined, the Kd is a measure of binding affinity in units of concentration. The term kon denotes the second-order rate constant of association.

B1: gravin fragment residues 265-556 (protein)
chain: KEEGEEKQEKEPSKSAESPTSPVTSETGSTFKKFFTQGWAGWRKKTSFRKPKEDEVEASEKKKEQEPEKVDTEEDGKAEVASEKLTASEQAHPQEPAESAHEPRLSAEYEKVELPSEEQVSGSQGPSEEKPAPLATEVFDEKIEVHQEEVVAEVHVSTVEERTEEQKTEVEETAGSVPAEELVGMDAEPQEAEPAKELVKLKETCVSGEDPTQGADLSPDEKVLSKPPEGVVSEVEMLSSQERMKVQGSPLKKLFTSTGLKKLSGKKQKGKRGGGDEESGEHTQVPADSPDS
Take B1: the IC50 of inhibition of PKC activity toward peptide substrate … in assay [1] worked out at 500 nM.

B2: gravin fragment residues 1526-1780 (protein)
chain: VAIEDLEPENGILELETKSSKLVQNIIQTAVDQFVRTEETATEMLTSELQTQAHVIKADSQDAGQETEKEGEEPQASAQDETPITSAKEESESTAVGQAHSDISKDMSEASEKTMTVEVEGSTVNDQQLEEVVLPSEEEGGGAGTKSVPEDDGHALLAERIEKSLVEPKEDEKGDDVDDPENQNSALADTDASGGLTKESPDTNGPKQKEKEDAQEVELQEGKVHSESDKAITPQAQEELQKQERESAKSELTES
As for B2, in assay [2], the Kd was determined as 100 nM and the on-rate constant (kon) amounted to 160000 M⁻¹ s⁻¹.
